Test results: US20260201034A1 (published 2026)

Target: T1, HER2 Y772dupYVMA peptide on HLA-A*02:01 (human)
T1 peptide: VMAYVMAGV
Assay: multimer staining

B1: HER2 (Y772dupYVMA)/HLA-A*02:01-specific TCR (TCR, V domains shown)
Valpha: AQTVTQSQPEMSVQEAETVTLSCTYDTSESDYYLFWYKQPPSRQMILVIRQEAYKQQNATENRFSVNFQKAAKSFSLKISDSQLGDAAMYFCAYWSVPGGSYIPTFGRGTSLIVHP
Vbeta: EAQVTQNPRYLITVTGKKLTVTCSQNMNHEYMSWYRQDPGLGLRQIYYSMNVEVTDKGDVPEGYKVSRKEKRNFPLILESPSPNQTSLYFCASSLRPGTSIPGELFFGEGSRLTVL
B1: recognises.
